Experimental data reported in patent publication US20240252614A1 (Pfizer, published 2024).

What was measured:
hMPV047 = molecular target: T1, hMPV047 (hMPV A, UniProt Q6WB98 19-102); assay: BLI, 50C stress
T1 construct: L141C-A159C
Description: (§1) The OCTET HTX (Sartorius, Gottingen, Germany) instrument was used to evaluate the expression and conformational integrity for each mutant. All measurements were conducted at 30° C. temperature in 96-well black plates (Corning, Corning, NY) with a final volume of 240 μL per well at a constant agitation rate of 1000 RPM.
(§2) Conformation integrity of hMPV A F protein mutants were evaluated by thermal stress experiments. Crude cell culture supernatants were normalized based on the results of the titer quantitation and then incubated for 1 hour at room temperature and two higher temperatures. […] Anti-Human IgG Fc Capture (AHC) biosensors were first equilibrated in PB before being dipped into more PB to establish the initial baseline. […] The mAb-bound biosensors were then dipped into the thermal stressed cell culture supernatants for 5 minutes. The kinetics analysis was done by OCTET data analysis software (version 12.0, Sartorius) based on curve fitting of the entire associate step.

hMPV069 [1] = molecular target: T2, hMPV069 (hMPV A, UniProt Q6WB98 19-102); assay: BLI, 50C stress
T2 construct: S291I
Description: as §1, §2

hMPV045 = molecular target: T3, hMPV045 (hMPV A, UniProt Q6WB98 19-102); assay: BLI, 50C stress
T3 construct: I137C-A159C
Description: as §1, §2

hMPV061 [2] = molecular target: T4, hMPV061 (hMPV A, UniProt Q6WB98 19-102); assay: BLI, 50C stress
T4 construct: G106A
Description: as §1, §2

hMPV071 [3] = molecular target: T5, hMPV071 (hMPV A, UniProt Q6WB98 19-102); assay: BLI, 50C stress
T5 construct: T365I
Description: as §1, §2

hMPV060 [4] = molecular target: T6, hMPV060 (hMPV A, UniProt Q6WB98 19-102); assay: BLI, 50C stress
T6 construct: A459P
Description: as §1, §2

hMPV068 [5] = molecular target: T7, hMPV068 (hMPV A, UniProt Q6WB98 19-102); assay: BLI, 50C stress
T7 construct: A159V
Description: as §1, §2

hMPV054 [6] = molecular target: T8, hMPV054 (hMPV A, UniProt Q6WB98 19-102); assay: BLI, 50C stress
T8 construct: S132P
Description: as §1, §2

hMPV077 = molecular target: T9, hMPV077 (hMPV A, UniProt Q6WB98 19-102); assay: BLI, 50C stress
T9 construct: Q476C, S477C
Description: as §1, §2

hMPV059 [7] = molecular target: T10, hMPV059 (hMPV A, UniProt Q6WB98 19-102); assay: BLI, 50C stress
T10 construct: V449P
Description: as §1, §2

hMPV066 [8] = molecular target: T11, hMPV066 (hMPV A, UniProt Q6WB98 19-102); assay: BLI, 50C stress
T11 construct: T49I
Description: as §1, §2

hMPV058 [9] = molecular target: T12, hMPV058 (hMPV A, UniProt Q6WB98 19-102); assay: BLI, 50C stress
T12 construct: L187P
Description: as §1, §2

hMPV043 = molecular target: T13, hMPV043 (hMPV A, UniProt Q6WB98 19-102); assay: BLI, 50C stress
T13 construct: G366C-D454C
Description: as §1, §2

hMPV048 [10] = molecular target: T14, hMPV048 (hMPV A, UniProt Q6WB98 19-102); assay: BLI, 50C stress
T14 construct: L141C-A161C
Description: as §1, §2

hMPV062 = molecular target: T15, hMPV062 (hMPV A, UniProt Q6WB98 19-102); assay: BLI, 50C stress
T15 construct: G121A
Description: as §1, §2

hMPV050 = molecular target: T16, hMPV050 (hMPV A, UniProt Q6WB98 19-102); assay: BLI, 50C stress
T16 construct: V148C-L158C
Description: as §1, §2

hMPV075 [11] = molecular target: T17, hMPV075 (hMPV A, UniProt Q6WB98 19-102); assay: BLI, 50C stress
T17 construct: L473F
Description: as §1, §2

hMPV067 [12] = molecular target: T18, hMPV067 (hMPV A, UniProt Q6WB98 19-102); assay: BLI, 50C stress
T18 construct: S149T
Description: as §1, §2

hMPV052 [13] = molecular target: T19, hMPV052 (hMPV A, UniProt Q6WB98 19-102); assay: BLI, 50C stress
T19 construct: L66P
Description: as §1, §2

hMPV A F WT Control [14] = molecular target: T20, hMPV A F WT Control (hMPV A, UniProt Q6WB98 19-102); assay: BLI, 50C stress
Description: as §1, §2

hMPV069 [15] = molecular target: T2, hMPV069; assay: BLI, no stress
Description: as §1, §2

hMPV061 [16] = molecular target: T4, hMPV061; assay: BLI, no stress
Description: as §1, §2

hMPV071 [17] = molecular target: T5, hMPV071; assay: BLI, no stress
Description: as §1, §2

hMPV060 [18] = molecular target: T6, hMPV060; assay: BLI, no stress
Description: as §1, §2

hMPV053 = molecular target: T21, hMPV053 (hMPV A, UniProt Q6WB98 19-102); assay: BLI, no stress
T21 construct: L110P
Description: as §1, §2

hMPV068 [19] = molecular target: T7, hMPV068; assay: BLI, no stress
Description: as §1, §2

hMPV054 [20] = molecular target: T8, hMPV054; assay: BLI, no stress
Description: as §1, §2

hMPV059 [21] = molecular target: T10, hMPV059; assay: BLI, no stress
Description: as §1, §2

hMPV066 [22] = molecular target: T11, hMPV066; assay: BLI, no stress
Description: as §1, §2

hMPV058 [23] = molecular target: T12, hMPV058; assay: BLI, no stress
Description: as §1, §2

hMPV049 = molecular target: T22, hMPV049 (hMPV A, UniProt Q6WB98 19-102); assay: BLI, no stress
T22 construct: E146C-T160C
Description: as §1, §2

hMPV048 [24] = molecular target: T14, hMPV048; assay: BLI, no stress
Description: as §1, §2

hMPV055 = molecular target: T23, hMPV055 (hMPV A, UniProt Q6WB98 19-102); assay: BLI, no stress
T23 construct: N145P
Description: as §1, §2

hMPV075 [25] = molecular target: T17, hMPV075; assay: BLI, no stress
Description: as §1, §2

hMPV067 [26] = molecular target: T18, hMPV067; assay: BLI, no stress
Description: as §1, §2

hMPV063 = molecular target: T24, hMPV063 (hMPV A, UniProt Q6WB98 19-102); assay: BLI, no stress
T24 construct: G239A
Description: as §1, §2

hMPV052 [27] = molecular target: T19, hMPV052; assay: BLI, no stress
Description: as §1, §2

hMPV A F WT Control [28] = molecular target: T20, hMPV A F WT Control; assay: BLI, no stress
Description: as §1, §2

B1: hMPV-2 mAb (antibody, V domains shown)
VH: QVQLQQSGAEVKKPGASVKVSCKASGYTFTSYGISWVRQAPGQGLEWMGWISGYNGNTNYAQTFQGTFTMTTDTSTSTAYMELRRLRSGDTAVYYCARDRYYASGSYNGMDVWGQGTTVTVSS
VL: QSALTQPPSASGAPGQRVTVSCSGSSSNVGSSSVYWYQQLPGTAPKLLIYRNNQRPSGVPDRFSGSKSGTSASLAISGLRSEDEADYYCAAWDDSLSGWVFGGGTKLTVLG
notes: human IgG1
Response Shift (hMPV047): -0.039 nm | Response Shift (hMPV069 [1]): 0.465 nm | Response Shift (hMPV045): 0.124 nm | Response Shift (hMPV061 [2]): 0.561 nm | Response Shift (hMPV071 [3]): 0.694 nm | Response Shift (hMPV060 [4]): 0.707 nm | Response Shift (hMPV068 [5]): 0.441 nm | Response Shift (hMPV054 [6]): 0.467 nm | Response Shift (hMPV077): 0.635 nm | Response Shift (hMPV059 [7]): 0.455 nm | Response Shift (hMPV066 [8]): 0.738 nm | Response Shift (hMPV058 [9]): 0.494 nm | Response Shift (hMPV043): 0.567 nm | Response Shift (hMPV048 [10]): 0.439 nm | Response Shift (hMPV062): 0.46 nm | Response Shift (hMPV050): 0.142 nm | Response Shift (hMPV075 [11]): 0.653 nm | Response Shift (hMPV067 [12]): 0.654 nm | Response Shift (hMPV052 [13]): 0.634 nm | Response Shift (hMPV A F WT Control [14]): 0.284 nm | Response Shift (hMPV069 [15]): 0.747 nm | Response Shift (hMPV061 [16]): 0.73 nm | Response Shift (hMPV071 [17]): 0.76 nm | Response Shift (hMPV060 [18]): 0.769 nm | Response Shift (hMPV053): 0.717 nm | Response Shift (hMPV068 [19]): 0.783 nm | Response Shift (hMPV054 [20]): 0.682 nm | Response Shift (hMPV059 [21]): 0.719 nm | Response Shift (hMPV066 [22]): 0.767 nm | Response Shift (hMPV058 [23]): 0.709 nm | Response Shift (hMPV049): 0.7 nm | Response Shift (hMPV048 [24]): 0.585 nm | Response Shift (hMPV055): 0.627 nm | Response Shift (hMPV075 [25]): 0.802 nm | Response Shift (hMPV067 [26]): 0.677 nm | Response Shift (hMPV063): 0.854 nm | Response Shift (hMPV052 [27]): 0.739 nm | Response Shift (hMPV A F WT Control [28]): 0.782 nm
